First the molecules themselves.
B1: HDV Ribozyme (parent)
chain: GGCCGGCAUGGUCCCAGCCUCCUCGCUGGCGCCGGCUGGGCAACAUUCCGAGGGGACCGUCCCCUCGGUAAUGGCGAAUGGGACCCA

In the data set the parent is B1. Description: self-cleavage, relative activity (ratio to wild type); higher = more cleavage; co-transcriptional.
Consider G29U A78U, for which the self-cleavage amounted to 0.0287.
For the variant G29U A78G, the self-cleavage came out at 0.0378.
For C30A G53A the value was 0.389.
For the variant C30U C62A, the self-cleavage came to 0.562.
Take G31C A56G: the self-cleavage was found to be 0.166.
The value for G31A U46A was 0.108; that for C32A G74U was 0.117.
For G31U G67U the value was 0.297; for C30G A45U, 0.107.
For C30G G80C, the self-cleavage was determined as 0.0462.
Turning to C30A U46C, the self-cleavage is 0.237.
For C32G A51C the value was 0.0489.
On to G31U A45C, for which the self-cleavage was found to be 0.119.
For G31U A45G the value was 0.107.
Take G31U A77C: the self-cleavage stood at 0.0489.
The value for C30A C62G was 0.321; that for C30A C44U was 0.132; that for C32A C36A was 0.
The value for C32A C36U was 0.0733.
The value for C32A C36G was 0.162; that for G29U G76A was 0.107.
With G31U U37G, the self-cleavage was determined as 0.107.
For G31U G52C the value was 0.35; for C30A U37C, 0.199; for C30U C61A, 0.718.
For C30U C61G the value was 0.369; for C32A G52U, 0.134.
The value for C30U G34A was 0.0875; that for G29U C33U was 0.0563.
For G31C G76U, the self-cleavage worked out at 0.463.
The value for C30A A51G was 0.361; that for C30U C33A was 0.0268.
The value for C30U G52U was 0.709; that for C30U G52C was 0.709; that for G31U G35A was 0.17.
The value for G31C C62G was 0.166; that for G31C C62A was 0.181; that for C32A C85U was 0.231.
G31A U79G: the self-cleavage was determined as 0.266.
For G31A U79C the value was 0.11; for G31A A77U, 0.0906; for G31A G52C, 0.619.
As to G31A G52U, the self-cleavage worked out at 0.531.
The value for G31C U72G was 0.128.
The value for C30A G59U was 0.637.
For G31C U37A, the self-cleavage amounted to 0.115.
Turning to G31A U72A, the self-cleavage came out at 0.0292.
For C30G G53C the value was 0.237; for C30G G53U, 0.103.
The value for C30U A77G was 0.489; that for C30U A77U was 0.215.
The value for G31A C49G was 0.34; that for G29U C49A was 0.111.
As to G29U C49U, the self-cleavage is 0.0583.
For C30G C33U the value was 0.
For G29U G31A the value was 0.135; for G29U G31U, 0.0804; for G29U G39C, 0.0302.
The value for G31C C61U was 0.262; that for G29U G74A was 0.0978; that for G29U G74U was 0.0963.
C30U A51U: the self-cleavage is 0.791.
The value for C30G C66G was 0.0326; that for G31U G38U was 0.0944.
The value for G31C U65C was 0.361; that for G31C A77U was 0.0489.
For G31A A45G the value was 0.422; for C30U G50U, 0.645; for C30U G50C, 0.677.
As to C30A A56C, the self-cleavage turned out to be 0.875.
C30G G50C: the self-cleavage is 0.157.
For C30A C36A the value was 0.0361; for C32A A71C, 0; for C30G C63A, 0.229.
For C30G C61G the value was 0.157; for C30G C61A, 0.0252; for G31C U69A, 0.299.
For C30A A77C the value was 0.0852; for G31U A42U, 0.104; for G31U A42C, 0.131.
Regarding C30U G35A, the self-cleavage was determined as 0.136.
For G31U C58A the value was 0.35; for G29U A71U, 0.0831; for C32A U37C, 0.203.
C30A C48A: the self-cleavage was 0.635.
For G31U G76U the value was 0.585; for G29U C86U, 0.0959; for G31A G67U, 0.439.
The value for G29U G53U was 0.0213; that for G29U G82A was 0.0282; that for G31U G40A was 0.359.
For G31A G74U the value was 0.134; for C30A G35C, 0.0678.
In the case of C30A G35U, the self-cleavage amounted to 0.166.
As to G29U G52U, the self-cleavage amounted to 0.0875.
For C32A G35C the value was 0.0405; for G31C A43G, 0.104; for G31C C75G, 0.0396.
For G31U G74C the value was 0.223; for C30G A71G, 0.0339; for G31C G59U, 0.252.
For C30G G38U the value was 0.114.
On to G31U U72C, for which the self-cleavage came to 0.163.
For C32A C48U the value was 0.106; for C30A C86U, 0.68; for C30G C62G, 0.
For G31A G73U the value was 0.229.
With G31A G73C, the self-cleavage was 0.107.
The value for G31A G73A was 0.234; that for G31A G39C was 0.182; that for G31C C63G was 0.34.
The value for C30U A56U was 0.782; that for G29U C41G was 0.0302; that for G29U C41U was 0.0432.
The value for C30U G80C was 0.208; that for C30U G80A was 0.227.
Regarding C30U G80U, the self-cleavage worked out at 0.116.
For C30U U60G the value was 0.443; for C30U C57U, 0.932; for C30U C57A, 0.787.
The value for C32A C64G was 0.131; that for C32A C64A was 0.166.
For G31U C57U the value was 0.383; for G31U C61U, 0.478.
Take G31U C61A: the self-cleavage stood at 0.38.
The value for G31C G54A was 0.191.
The value for G31C G54C was 0.193.
Consider C30A C41U, for which the self-cleavage was 0.328.
The value for G31U C66G was 0.266.
For C30U G55A the value was 0.691.
The value for C32A U65G was 0.122.
Turning to G31A C36U, the self-cleavage came out at 0.241.
For C30U C64U the value was 0.806.
The value for C30G U37C was 0; that for G29U U60G was 0.175.
The value for G29U G68U was 0.135.
Take G29U G68A: the self-cleavage came to 0.0886.
As to G31C G53C, the self-cleavage worked out at 0.332.
Regarding G29U C30A, the self-cleavage came to 0.155.
As to G29U C30G, the self-cleavage worked out at 0.0923.
The value for G31A G55A was 0.376.
The value for C30A G80A was 0.105.
For C32A C75A the value was 0.0723; for C30G A42C, 0.151.
In the case of G31A C85G, the self-cleavage amounted to 0.367.
The value for G31U G81U was 0.23; that for C30G C41U was 0.0702; that for C30U G67U was 0.75.
The value for G31C A70G was 0.285; that for G29U G81C was 0.086; that for C30A G68C was 0.308.
The value for C30A G40A was 0.462.
Consider G31U U65C, for which the self-cleavage came out at 0.339.
For C30G A87C the value was 0.122.
Take G31C A83C: the self-cleavage amounted to 0.185.
Regarding C32A U69C, the self-cleavage came to 0.161.
The value for G31U G59C was 0.57; that for C30A C66G was 0.675; that for G31A G80U was 0.104.
With G31A A42U, the self-cleavage is 0.107.
The value for G31A A42C was 0.102; that for G31A A42G was 0.116.
The value for G31A G68A was 0.481.
For G31A G68U the value was 0.463; for C30G A43C, 0.0489; for G31U G34A, 0.0804.
Turning to C32A C63U, the self-cleavage is 0.332.

Source of the values: the RNAGym collection of RNA variant scans (doi:10.7554/elife.80360).
